The results in this text go back to paper PMC4551922, “Nucleic acid-binding specificity of human FUS protein”.

Data set [1] concerns the target T1, MBP-FUS (human, UniProt P35637 1-526). Put plainly: EMSA. The conditions noted are these: EMSA: 50 mM Tris-HCl pH 7.4, 150 mM KCl, 2 mM MgCl2, 2 mM DTT, 0.1 mg/ml yeast tRNA, 0.1 mg/ml BSA, room temperature, 30 min, trace 32P-RNA.
Data set [2] relates to MS2 coat protein (bacteriophage MS2?). The conditions noted are these: EMSA: 50 mM Tris-HCl pH 7.4, 150 mM KCl, 2 mM MgCl2, 2 mM DTT, 0.1 mg/ml yeast tRNA, 0.1 mg/ml BSA, room temperature, 30 min, trace 32P-RNA.
Data set [3] shares this test system. The conditions noted are these: EMSA: 50 mM Tris-HCl pH 7.4, 150 mM KCl, 2 mM MgCl2, 2 mM DTT, 0.1 mg/ml yeast tRNA, 0.1 mg/ml BSA, room temperature, 30 min, trace 32P-RNA. The source holds these as a separate data set. For orientation: A gel shift assay detects complexes by their altered migration in electrophoresis.
Data set [4] concerns the target T1, MBP-FUS. Kind of data set: EMSA; EMSA: 50 mM Tris-HCl pH 7.4, 150 mM KCl, 2 mM MgCl2, 2 mM DTT, 0.1 mg/ml yeast tRNA, 0.1 mg/ml BSA, room temperature, 30 min, trace 32P-RNA. The conditions noted are these: protein: recombinant, tags: N-terminal His6-MBP (not cleaved).
Data set [5] deals with T1, MBP-FUS. Kind of data set: EMSA; weaker than full prD; similar to 5'prD; EMSA: 50 mM Tris-HCl pH 7.4, 150 mM KCl, 2 mM MgCl2, 2 mM DTT, 0.1 mg/ml yeast tRNA, 0.1 mg/ml BSA, room temperature, 30 min, trace 32P-RNA. The conditions noted are these: protein: recombinant; tags: N-terminal His6-MBP (not cleaved); label: 32P.
The target in data set [6] is T1, MBP-FUS. Put plainly: EMSA; weaker than full prD; similar to 3'prD; EMSA: 50 mM Tris-HCl pH 7.4, 150 mM KCl, 2 mM MgCl2, 2 mM DTT, 0.1 mg/ml yeast tRNA, 0.1 mg/ml BSA, room temperature, 30 min, trace 32P-RNA. The conditions noted are these: protein: recombinant; tags: N-terminal His6-MBP (not cleaved); label: 32P.
Another data set has as its target MBP-LC-RRM (human, UniProt P35637 1-384). Put plainly: EMSA; EMSA: 50 mM Tris-HCl pH 7.4, 150 mM KCl, 2 mM MgCl2, 2 mM DTT, 0.1 mg/ml yeast tRNA, 0.1 mg/ml BSA, room temperature, 30 min, trace 32P-RNA. The conditions noted are these: protein: recombinant, tags: N-terminal MBP, label: 32P.
In a further data set the target is MBP-RGG-Znf-RGG (human, UniProt P35637 385-526). Described as above. The conditions noted are these: protein: recombinant, tags: N-terminal MBP, label: 32P.
In data set [7] the target is T1, MBP-FUS. Put plainly: competition; cold ssDNA vs labeled prD ssRNA; EMSA: 50 mM Tris-HCl pH 7.4, 150 mM KCl, 2 mM MgCl2, 2 mM DTT, 0.1 mg/ml yeast tRNA, 0.1 mg/ml BSA, room temperature, 30 min, trace 32P-RNA. The conditions noted are these: protein: recombinant; tags: N-terminal His6-MBP (not cleaved); chain copies: 4; label: 32P.
[8] abbreviates: chain copies: 4, label: 32P, blunt.

Like-named read-outs stand apart in the source and are kept apart here.

T1 sequence (P35637 whole entry): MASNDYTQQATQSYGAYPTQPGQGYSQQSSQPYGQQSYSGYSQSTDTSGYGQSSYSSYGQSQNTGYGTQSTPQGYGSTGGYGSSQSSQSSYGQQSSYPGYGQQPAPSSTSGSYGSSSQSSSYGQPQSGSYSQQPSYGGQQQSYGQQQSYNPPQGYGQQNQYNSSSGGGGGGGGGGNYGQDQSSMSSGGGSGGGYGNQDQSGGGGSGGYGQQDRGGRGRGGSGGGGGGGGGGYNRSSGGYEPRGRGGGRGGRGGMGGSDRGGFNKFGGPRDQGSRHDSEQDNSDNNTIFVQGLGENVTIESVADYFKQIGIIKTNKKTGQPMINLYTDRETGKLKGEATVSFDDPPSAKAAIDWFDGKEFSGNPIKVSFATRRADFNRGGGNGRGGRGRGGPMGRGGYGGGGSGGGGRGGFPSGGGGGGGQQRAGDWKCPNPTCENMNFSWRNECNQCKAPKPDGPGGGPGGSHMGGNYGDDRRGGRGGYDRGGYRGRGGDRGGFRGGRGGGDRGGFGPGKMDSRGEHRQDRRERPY
Sequence of MBP-RGG-Znf-RGG (P35637 385-526): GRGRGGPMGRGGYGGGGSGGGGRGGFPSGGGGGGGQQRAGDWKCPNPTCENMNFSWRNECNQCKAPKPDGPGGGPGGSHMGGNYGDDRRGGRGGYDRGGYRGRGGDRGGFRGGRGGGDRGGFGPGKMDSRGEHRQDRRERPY
Sequence of MBP-LC-RRM (P35637 1-384): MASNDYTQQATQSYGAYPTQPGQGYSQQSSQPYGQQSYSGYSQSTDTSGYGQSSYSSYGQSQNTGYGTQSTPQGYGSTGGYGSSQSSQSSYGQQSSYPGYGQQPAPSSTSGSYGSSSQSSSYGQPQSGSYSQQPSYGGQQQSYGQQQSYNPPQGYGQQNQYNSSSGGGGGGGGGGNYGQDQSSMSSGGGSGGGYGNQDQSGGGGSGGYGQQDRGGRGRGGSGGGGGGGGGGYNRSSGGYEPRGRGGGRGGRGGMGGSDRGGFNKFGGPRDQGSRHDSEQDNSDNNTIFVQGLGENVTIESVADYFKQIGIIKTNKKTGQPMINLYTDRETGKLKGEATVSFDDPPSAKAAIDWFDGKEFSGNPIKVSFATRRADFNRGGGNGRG

For the molecule TERRA, the Kd (in general, a measure of binding affinity in units of concentration) in the data set with MBP-FUS [1] was 116 nM. In the data set with MBP-FUS [1], MBP 1-200 showed a Kd of 56 nM.

MS2 motif 21 nt returned a Kd in data set [2] of 10 nM. For the molecule MBP 1-100 MS2, the Kd in data set [3] is 100 nM. As for GAUUUAUCUUUAACUACUCAAGAUACUGAACAUGACA (structured_RNA) [Stem-loop], in the data set with MBP-FUS [4] (label: 32P, hairpin), the equilibrium dissociation constant (Kd) was determined as 430 ± 28 nM. As to GAUUUAUCUUUAACUACUCUAUCUUCUGAACAUGACA (ssRNA) [Stem-loop neg], the dissociation constant Kd with MBP-FUS [4] (label: 32P) is 460 ± 39 nM. For the molecule GGGAGACCAAAACUGAAGAAGGUAA (ssRNA) [MBP 1-20], the binding result with MBP-FUS [4] (label: 32P) is recorded as “binds”. Turning to CAACUUAGGUGGUUGAUUUGA (ssRNA) [GUGGU], the equilibrium dissociation constant (Kd) with MBP-FUS [4] (label: 32P) was 980 ± 42 nM. On to AGUGAAGGCAGAGAGGGGUUAAGG (ssRNA) [3'prD], for which the binding result in the data set with MBP-FUS [5] is reported as “binds”. Regarding AGGGTTAGGGTTAGGGTTAGGG (structured_DNA) [Htelo DNA], the Kd with MBP-FUS [4] (label: 32P) is 730 ± 38 nM.

With AGGGTTAGTGTTAGTGTTAGGG (ssDNA) [Htelo DNA neg], the dissociation constant Kd with MBP-FUS [4] (label: 32P) stood at 690 ± 48 nM. As for AUUGAGGAGCAGCAGAGAAGUUGG (ssRNA) [5'prD], in the data set with MBP-FUS [6], the binding result is given as “binds”.

Consider AUUGAGGAGCAGCAGAGAAGUUGGAGUGAAGGCAGAGAGGGGUUAAGG (ssRNA) [prD RNA], for which the equilibrium dissociation constant (Kd) with MBP-LC-RRM turned out to be 60 ± 3 nM; with MBP-FUS [4] (label: 32P), 97 ± 2 nM; in the data set with MBP-RGG-Znf-RGG, 81 ± 2 nM.

As to UUGUAUUUUGAGCUAGUUUGGUGAC (ssRNA) [GGUG], in the data set with MBP-FUS [4], the dissociation constant (Kd) stood at 600 ± 20 nM.

On to AGGUCUCAGUUCAUCGCGCGAGGUUAUAGU (ssRNA) [CGCGC], for which the Kd in the data set with MBP-FUS [4] (label: 32P) is 290 ± 13 nM. Consider ATTGAGGAGCAGCAGAGAAGTTGGAGTGAAGGCAGAGAGGGGTTAAGG (ssDNA) [prD ssDNA], for which the binding signal with MBP-FUS [7] was 10 fold more than ssRNA. Moreover, the Kd came to 220 ± 32 nM in the data set with MBP-LC-RRM; 280 ± 26 nM with MBP-FUS [4] (chain copies: 4, label: 32P); 290 ± 29 nM with MBP-RGG-Znf-RGG.

B1: prD dsDNA (dsDNA)
DNA 1: ATTGAGGAGCAGCAGAGAAGTTGGAGTGAAGGCAGAGAGGGGTTAAGG
DNA 2: CCTTAACCCCTCTCTGCCTTCACTCCAACTTCTCTGCTGCTCCTCAAT
Consider B1, for which the Kd was found to be 1400 ± 170 nM in the data set with MBP-LC-RRM (blunt), 1200 ± 110 nM with MBP-FUS [4] (setting [8]) and 1000 ± 81 nM with MBP-RGG-Znf-RGG (blunt). UUGUAUUUUGAGCUAGUUUCCUCAC (ssRNA) [GGUG neg]: the Kd with MBP-FUS [4] (label: 32P) stood at 840 ± 50 nM. As for CCUUAACCCCUCUCUGCCUUCACUCCAACUUCUCUGCUGCUCCUCAAU (ssRNA) [As-prD RNA], the Kd with MBP-LC-RRM was 280 ± 22 nM; with MBP-FUS [4] (label: 32P), 79 ± 4 nM; in the data set with MBP-RGG-Znf-RGG, 260 ± 32 nM.

B2: prD DNA/RNA hybrid (DNA:RNA)
DNA: ATTGAGGAGCAGCAGAGAAGTTGGAGTGAAGGCAGAGAGGGGTTAAGG
RNA: CCUUAACCCCUCUCUGCCUUCACUCCAACUUCUCUGCUGCUCCUCAAU
Regarding B2, the Kd with MBP-LC-RRM (blunt) was found to be 1200 ± 250 nM; with MBP-FUS [4] (setting [8]) it was 980 ± 100 nM; with MBP-RGG-Znf-RGG (blunt), 1100 ± 110 nM.

B3: prD dsRNA (dsRNA)
RNA 1: AUUGAGGAGCAGCAGAGAAGUUGGAGUGAAGGCAGAGAGGGGUUAAGG
RNA 2: CCUUAACCCCUCUCUGCCUUCACUCCAACUUCUCUGCUGCUCCUCAAU
As for B3, the results for the Kd with MBP-LC-RRM (blunt), with MBP-FUS [4] (setting [8]) and with MBP-RGG-Znf-RGG (blunt) were 2100 ± 60 nM, 350 ± 38 nM and 1100 ± 80 nM, respectively.

As to GGGAGACCAAAACUG (ssRNA) [MBP 1-10], in the data set with MBP-FUS [4] (label: 32P), the binding result is on record as “no binding”. Turning to AAAAAAAAAAAAAAAAAAAAAAAA (ssRNA) [polyA 24-mer], in the data set with MBP-FUS [4] (label: 32P), the Kd was found to be 846 nM.
